This note sets out measurements from patent US6953661 (WESTMEAD HOSPITAL, dated 2005).

The target in this test is T1, His-KHCstalk (human uKHC amino acid residues 555-772, tagged at the N-terminus with an oligohistidine … (human, UniProt P33176 555-772)).
T1 construct: range 555-772; also the antigen used to raise the chicken anti-uKHC; also called HisKHC555-772; His-KHC fragment; not shown: N-terminal oligohistidine (His) tag
T1 sequence (looked up): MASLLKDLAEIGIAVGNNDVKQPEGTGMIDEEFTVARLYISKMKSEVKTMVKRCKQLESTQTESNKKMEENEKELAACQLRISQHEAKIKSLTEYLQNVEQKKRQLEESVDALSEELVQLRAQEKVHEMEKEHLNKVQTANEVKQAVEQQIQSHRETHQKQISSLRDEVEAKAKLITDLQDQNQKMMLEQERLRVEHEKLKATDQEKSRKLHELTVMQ
The test is described as follows: pull-down on nickel-activated beads, immunoblot. In general terms: A western blot detects proteins with antibodies after separation by electrophoresis.

B1: untagged US11 (recombinant HSV1 US11 with five additional amino acids MGRLE at the N-terminus, expressed in Escherichia coli) (other)
chain: MGRLEMSQTQPPAPVGPGDPDVYLKGVPSAGMHPRGVHAPRGHPRMISGPPQRGDNDQAAGQCGDSGLLRVGADTTISKPSEAVRPPTIPRTPRVPREPRVPRPPREPREPRVPRAPRDPRVPRDPRDPRQPRSPREPRSPREPRSPREPRTPRTPREPRTARGSV
notes: also called untagged US11 construct
Turning to B1, the binding result is “no binding”.
